Results: patent US7462695B2, “Insect chymotrypsin and inhibitors thereof” (Hexima Limited, priority 2003, dated 2008)

Columns and labels:
[1] = tested on: chymotrypsin activity in unfractionated gut extracts from H. punctigera; assay: Chymotrypsin activity in unfractionated gut extracts with proteinase inhibitors (FIG. 3); assay type: biochemical, Helicoverpa punctigera; settings: larvae raised on haricot bean diet without added proteinase inhibitors; substrate SAAPFpNA
Method: FIG. 3 is a graphical representation showing the effect of various proteinase inhibitors on the chymotrypsin activity in unfractionated gut extracts from H. punctigera. Proteinase inhibitors were mixed with 1 μg of protein from an unfractionated gut extract before incubation with the chymotrypsin substrate N-succinyl-Ala-Ala-Pro-Phe-p-nitroanilide. Inhibition is expressed as a percentage of the total activity in the control samples.
Fourth-instar larvae were killed using ethyl-acetate prior the removal of individual gut which were then homogenized in a mortar and pestle in an equal amount [(w/v)] of 50 mM Tris-HCl, pH 8.0 containing 100 μM benzamidine. Insoluble material was removed by centrifugation at 20,000 rpm for 15 min at 4° C. and total protein concentration determined using the Bradford method (Bradford, Anal Biochem 72: 248-254, 1976) with reagents from BioRad and BSA as a standard.
Unfractionated gut extract containing approximately 1 μg of buffer soluble protein was added to 10 μL CAPS buffer (0.5 M, 3-[cyclohexylamino]-1-propane-sulfonic acid, pH 10) and made to a final volume of 100 μL in individual wells of a 96 well microtiter plate. Proteinase inhibitors were added over a range of concentrations and incubated for 15 min at 25° C. Bovine chymotrypsin (100 ng) was used as a positive control, both for activity and inhibition. The chromogenic artificial substrate SAAPFpNA (N-Succinyl-L-alanyl-L-alanyl-L-prolyl-L-phenylalanine 4-nitroanilide) was then added to a final concentration of 1 mM and hydrolysis of the substrate was measured at 405 nm using the SpectraMax 250 microtiter plate reader (Molecular Devices).

[2] = tested on: chymotrypsin activity in gut extracts of H. punctigera larvae; assay: Inhibition of chymotrypsin activity in individual larval gut extracts (FIG. 2F); assay type: biochemical, Helicoverpa punctigera; settings: 80 nM inhibitor; SAAPFpNA substrate
Description: (§1) FIG. 2 is a graphical representation showing growth of H. punctigera larvae fed on either low protein haricot bean artificial diet or cotton leaf artificial diet, in the presence or absence of 0.26% (w/v) NaPIs. Weight gain (mg) was monitored for 21 days. […] (A) Growth of larvae. (B) Relative size of larvae at 21 days after feeding on cotton artificial diet, in the presence or absence of 0.26% NaPIs. […] (C) The effect of NaPIs on gut trypsin and chymotrypsin activity. When each H. punctigera larva reached the late fourth/early fifth instar stage of development, the gut was removed and gut extract prepared prior to assays for trypsin and chymotrypsin activity. […] Trypsin activity was determined using BApNA substrate and chymotrypsin activity with SAAPFpNA substrate. Units of activity are expressed as change in absorbance at 405 nm/min/mg gut extract protein (±standard deviation). […] Trypsin activity was determined using BApNA substrate and chymotrypsin activity with SAAPFpNA substrate. Units of activity are expressed as change in absorbance at 405 nm/min/mg faecal extract protein (±standard deviation). […] Frass extracts were analysed on 15% ((w/v)) SDS-PAGE and transferred to nitrocellulose. […] Units of activity are expressed as substrate hydrolysis at 405 nm/min/mg extract protein (±standard deviation). […] Trypsin activity was determined using BApNA substrate. […]

[3] = biological target: NaPI-insensitive chymotrypsins from H. punctigera (Helicoverpa punctigera, UniProt A0PGE0); assay: Inhibition of NaPI-insensitive chymotrypsin (gut extract depleted of trypsins and NaPI-sensitive chymotrypsins); assay type: biochemical; settings: pH 10, 30 min preincubation at 30° C.; for % Inhibition Insensitive: at maximum concentration tested
Method: The midgut was dissected from 100 fourth instar larvae and buffer soluble extracts were prepared. The gut extract was depleted of NaPI-sensitive proteases by passage through an affinity column composed of immobilized NAPI protein (C1, C2, T1-T4). […] This preparation of unbound material was used to study the pH optimum, substrate preference and effect of a range of proteinase inhibitors on the activity of the NaPI-insensitive proteinase. […] The best substrate for enzyme assays was determined using seven different commercial substrates.
(§2) Several proteinase inhibitors were tested for their ability to inhibit the activity of the insensitive chymotrypsins. The buffer used for all assays was 500 mM CAPS, 75 mM NaCl, 2.5 mM MgCl2 at pH 10.

bovine chymotrypsin = bovine chymotrypsin (Bos taurus, UniProt P00766); assay: Inhibition of bovine chymotrypsin; assay type: biochemical; settings: 100 ng bovine chymotrypsin, pH 10; for % Inhibition BC: at maximum concentration tested
Method: as §2

[4] = tested on: trypsin activity in gut extracts of H. punctigera larvae; assay: Inhibition of trypsin activity in individual larval gut extracts by T1 (FIG. 2F); assay type: biochemical, Helicoverpa punctigera; settings: 80 nM inhibitor; BApNA substrate
Description: as §1

H. armigera larvae = assay: Bioassay of H. armigera larvae on transgenic cotton expressing NaPI and StPotIA (FIG. 27); assay type: in vivo, Helicoverpa armigera
Method: FIG. 27 is a graphical representation showing growth of H. armigera larvae on transgenic cotton expressing NaPI and PotI. Transgenic cotton cv Coker 315 was used in bioassays with H. armigera. Thirty larvae were fed leaves of either the control untransformed Coker 315, transgenic line 1 (NaPI), transgenic line 2 (StpotIA) or transgenic plant 3 (NaPI×StPot1A). The weight of the larvae was measured at day 7 post-egg hatch. (A) Growth of larvae. At day 7, larvae fed leaves expressing NaPI were 86% of the weight of the control larvae fed untransformed leaves. Larvae fed leaves expressing StPotIA were 92% of the control and larvae fed leaves expressing both NAPI and StPotIA were 46% of the control. (B) The effect of ingestion of NAPI and PotI on gut trypsin and chymotrypsin activity. Gut from the larvae in each experiment were pooled and extracts prepared. All assays were performed in duplicate. Trypsin activity (black) was determined using BApNA substrate and chymotrypsin activity (grey) with SA2PFpNA substrate. Units of activity are expressed as change in absorbance at 405 nm/min/ug gut extract protein. Trypsin activity was reduced, relative to the control, in the extracts from larvae fed leaves expressing NaPI and NaPI+StPotIA. Chymotrypsin activity was elevated in extracts from larvae fed leaves expressing NAPI or NAPI+StPotIA and reduced in extracts from larvae fed StPotIA alone.
Two gene constructs (pHEX2 and pHEX6) were prepared for transformation of cotton (Gossypium hirsutum). pHEX2 consists of a 35S promoter driving the NaPI gene with a 35S terminator, inserted into the binary vector pBIN 19 (Bevan, Nucl. Acids Research, 12: 8711-8721, 1984). pHEX6 consists of a 35S promoter driving the StPotIA gene with a 35S terminator inserted into the binary vector pBIN 19.
Transgenic cotton was produced using the method of Umbek et al., Biotechnology, 5: 263-266, 1987) with modifications. Hypocotyl sections of cotton Cv Coker 315 were co-cultivated with Agrobacterium tumefaciens strain LBA 4404 containing the required binary vector. […]

[5] = tested on: NaPI-insensitive chymotrypsins from H punctigera; assay: Inhibition of NaPI-insensitive chymotrypsins by StPotIA and StPotIB (FIG. 26); assay type: biochemical, Helicoverpa punctigera
Method: FIG. 26 is a graphical representation showing inhibition of NaPI-insensitive chymotrypsin by bacterially expressed StPotIA and StPotIB. Inhibition of the NAPI-insensitive chymotrypsin from the gut of H. punctigera with purified PotI. (A) substrate SA2PFpNA, development time 30 min, (B) substrate SA2PLpNA, 30 min incubation. Mix of PotI isoforms from potato tuber (circle), StPotIA (square), StPotIB (triangle).
The inhibitory activity of StPotIA and StPotIB against the NaPI-insensitive chymotrypsins from H punctigera was determined by preincubating the NaPI-insensitive protease (10 μL) with varying amounts of StPotIA and StPotIB (0-600 nM) in 133 mM CAPS buffer, pH 10.0 at 30° C. in 96 well microtitre plates. After the 30 min preincubation, the incubation was started by the addition of substrate (SA2PFpNA, SA2PLpNA or SA2PMpNA) to a final concentration of 1 mM in a final volume of 100 μL. Absorbance was measured at 405 nm after 30 or 60 min.

Chain of NaPI-insensitive chymotrypsins from H. punctigera (A0PGE0 entry or part of it): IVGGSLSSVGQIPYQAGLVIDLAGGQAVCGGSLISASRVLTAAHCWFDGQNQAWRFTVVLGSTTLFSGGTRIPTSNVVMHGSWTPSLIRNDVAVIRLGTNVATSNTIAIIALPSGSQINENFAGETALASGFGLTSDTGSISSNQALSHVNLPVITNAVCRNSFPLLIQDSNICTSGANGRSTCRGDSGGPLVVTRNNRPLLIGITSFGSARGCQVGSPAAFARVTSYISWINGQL

With “C1: 6 kDa chymotrypsin inhibitor monomer released from the N. alata PI precursor (SEQ ID NO:23) (DRICTNCCAGTKGCKYFSDDGTFVCEGESDPRNPKACTLNCDPRIAYGVCPRSEEKKN; listed as Nicotiana alata)” the “inhibition of gut chymotrypsin activity” value [1] was 70% and the “inhibition of chymotrypsin activity, extracts of control larvae (in words)” value [2] was “did not inhibit chymotrypsin activity in the extracts of six control larvae and only partially inhibited the gut chymotrypsins in the rest of the controls”.

In the case of O=S(=O)(F)Cc1ccccc1 [PMSF, phenylmethyl sulphonyl fluoride, reference compound], the “% Inhibition Insensitive” value [3] is reported as 100%.

CC(=O)N[C@@H](CC(C)C)C(=O)N[C@@H](CC(C)C)C(=O)N[C@H](C=O)CCCNC(=N)N [Leupeptin, reference compound] was tested, and the IC50 (bovine chymotrypsin) was 2.4 mM and the “% Inhibition BC” value (bovine chymotrypsin) was 52%.

For “T1: 6 kDa trypsin inhibitor monomer released from the N. alata PI precursor (SEQ ID NO:24) (DRICTNCCAGTKGCKYFSDDGTFVCEGESDPRNPKACPRNCDPRIAYGICPLAEEKKN; listed as Nicotiana alata)”, the “inhibition of trypsin activity, extracts from NaPI-fed larvae” value [4] was “could not be inhibited” and the “inhibition of trypsin activity, extracts of control larvae” value [4] was “almost totally inhibited”.

B1: StPotIA: PotI homolog cloned from wounded potato leaf RNA, alanine at P1 site (SEQ ID NO:81); E. coli expressed, His-tagged (protein)
chain: MESKFAHIIVFFLLATSFETLMARKEGDGSEVIKLLKESESESWCKGKQFWPELIGVPTKLAKEIIEKENPSINDVPIILNGTPVPADFRCNRVRLFDNILGDVVQIPRVA
modifications: His tag; potato
notes: E. coli expressed, His-tagged
In the case of B1, the “larval weight as % of control larvae fed untransformed leaves” value (H. armigera larvae; day 7 post-egg hatch, protein expressed in transgenic cotton leaves) is reported as 92%, the “effect on larval growth compared to the control (in words)” value (H. armigera larvae; expression in cotton leaves) is reported as “small inhibition of larval growth” and the gut chymotrypsin activity (H. armigera larvae; pooled gut extracts, SA2PFpNA) is reported as “reduced”. The “inhibition of the NaPI-insensitive chymotrypsin (in words)” value [5] was “good inhibitors” and the “inhibition of SA2PMpNA hydrolysis” value ([5]; substrate SA2PMpNA) was 40%.

B2: Bowman Birk: soybean Bowman Birk inhibitor, purchased from Sigma-Aldrich (protein, UniProt P01055 40-110, looked up)
Bowman-Birk type proteinase …: DDESSKPCCDQCACTKSNPPQCRCSDMRLNSCHSACKSCICALSYPAQCFCVDITDFCYEPCKPSEDDKEN
For B2, the “% Inhibition Insensitive” value [3] was 100%, the IC50 [3] was 240 nM and the IC50 (bovine chymotrypsin) was 6e-05 mM. For the same molecule, the “% Inhibition BC” value (bovine chymotrypsin) was 100% and the “inhibition of gut chymotrypsin activity (in words)” value [1] was “failed to abolish all the chymotrysin activity”.
